Results from the nanobody polyreactivity screen of Harvey et al. (2022).

Assay: yeast display, Sf9 membrane polyspecificity reagent, FACS + sequencing; frameworks hold sequencing errors
Outline: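 Galactose-induced (36–48 hours) yeast carrying a synthetic nanobody display library were exposed to 10% biotinylated, detergent-solubilized Sf9 membrane reagent at 4 °C for 1 hour. FACS followed streptavidin microbead enrichment, using low and high (top ~1%) gates for expression (anti-HA) and reagent binding (streptavidin). Colony PCR, MiSeq 2 × 250 sequencing and CDR-length filtering followed. Labels for polyreactivity reflect the gate of origin.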

QVQLEESGGGLVQAGGSLRLSCAASGRIFVNYDMGSDRQAPGKERELVADISISGSTDYADSVKGRFTISRDNAKNTVYLQMNSLKPEDTAVYYCATSFYVSDYYVPYEMGYWGQGTQVTVSS
polyreactivity (PSR sort gate): low polyreactivity

QVQLEESGGGLVQAGGSLRLSCAASGRIFVSNAMGWYRQAPGKERELVAAITDSGGSTYYADSVKGRFTISRDNAKNTVYLQMNSLKPEDTAVYYCATRTLFRYPNYGNNLWGYDYWGLGTQVTVSS
polyreactivity (PSR sort gate): low polyreactivity

QVQLEESGGGLVQAGGSLRLSCAASGRIFYQNAMGWYRQAPGKERQLVADIASGGSTSYADSVKGRFTISRDNAKNTVYIQMNSLKPEDTAVYYCATAVLYGDGWYYYWGQGTQVTVSS
polyreactivity (PSR sort gate): low polyreactivity

QVQLEESGGGLVQAGGSLRLSCAASGRIIGGYAMGWYRQAPGKERELVAGIRGGTSTYYADSVKGRFTISRDNAKNTVYLQMNSQKPEDTAVYYCNARSLGRKYDYWGQGTQVTVSS
polyreactivity (PSR sort gate): low polyreactivity

QVQLEESGGGLVQAGGSLRLSCAASGRIIQQYAMGWSRQAPGKDRELVAAISRGGSTYYADSEKGRFTISRDNAKNTVYLLMYSLKPEDTAVYDCNAGVGFTSAPQKYYYWGEGTQVTVSS
polyreactivity (PSR sort gate): high polyreactivity

QVQLEESGGGLVQAGGSLRLSCAASGRIQYNAMGWYRQAPGKEREFVAAISWSGGTTYYADSVKGRFTISRDNAKNTVYLQMNSLKPEDTAVYYCATPYTHWGQGTQVTVSS
polyreactivity (PSR sort gate): high polyreactivity

QVQLEESGGGLVQAGGSLRLSCAASGRLFYSNPMGWYREAPGKEREVVAAISSGASTYYADSVKGRFTISRDNAKNTVYLQMNSLKPEDTAVYYCAVYRPSSYDYGYWGQGTQVTVSS
polyreactivity (PSR sort gate): low polyreactivity

QVQLEESGGGLVQAGGSLRLSCAASGRNLEVYAMGWNRKAPGKERELVAAIRWSDGNTYYADSVKGRFTISRDIAKNTVYLQMNSLKPEDTAVYYCAARTPGGYDWGQGTQVTVSS
polyreactivity (PSR sort gate): high polyreactivity

QVQLEESGGGLVQAGGSLRLSCAASGRTFDYYAMGWYRQAPGKERELVAAIRLISGNTYYADSVKGRFTISRDNAKNTVYLQMNSLKPEDTAVYYCAAPSDGVPSLYGGMDYWGQGTQVTVSS
polyreactivity (PSR sort gate): low polyreactivity

QVQLEESGGGLVQAGGSLRLSCAASGRTFGLNAMGWYRQAPGKERELVAAITYSGGSTYYADSVKGRCTISRDNAKNTVYLHMNSLKPEDTAVYYCAKEVQTYWYHYYYWGHGTQVTVSS
polyreactivity (PSR sort gate): high polyreactivity

QVQLEESGGGLVQAGGSLRLSCAASGRTFGTYVMGWNRQATGKHRELVAAISRSGGGTYYADSVKGRFTISRDNEKNTVYLQMNSLKPEDTAVYYCADRRVVYRYYWYSAYDYWGQGTQVTVSS
polyreactivity (PSR sort gate): high polyreactivity

QVQLEESGGGLVQAGGSLRLSCAASGRTFKYYSMGWYRPAPGKERELVAAIRSRTGSTYYADSVKGRFTISRDNAKNTVYLQMNSLKPEDTAVYYCAAQPGSYYGPRWYYDDDYWGQGTQVTVSS
polyreactivity (PSR sort gate): high polyreactivity

QVQLEESGGGLVQAGGSLRLSCAASGRTFRSYTMGWYRQAPGKERELGAAISYNGGSTYYADSVNGRFTISRDYAKNTVYLQMNSLKPEDTSVYYCAVYSIYGFYYWGQGTQVTVSS
polyreactivity (PSR sort gate): high polyreactivity

QVQLEESGGGLVQAGGSLRLSCAASGRTFSRYAMGWYRQAPGKERELVAAIRGNSGNTYYADSVKGRFTISRDNAKNTVYLQMNSLKPEDTAVYYCAKPFNIWGQGTQVTVSS
polyreactivity (PSR sort gate): high polyreactivity

QVQLEESGGGLVQAGGSLRLSCAASGRTFTHYAMGWYRQAPGRERELVAGITRSGGITYYADSVKGRFTISRDNANNTVYLQMNSLKPEDTAVYYCNAGFHGLAYFLKPEYDYWGQGTQVTVSS
polyreactivity (PSR sort gate): low polyreactivity

QVQLEESGGGLVQAGGSLRLSCAASGRTFYRYAMGWYRQAPGKERELVAAITWSGGSTYYADSVKGRFTTSRDNAKNTVYLQMNSLKPEDTAVYYCARRLYPYRPTAYDYWGQGTQVTVSS
polyreactivity (PSR sort gate): low polyreactivity

QVQLEESGGGLVQAGGSLRLSCAASGRTFYTNAMGWYRQAPGKERELVAAISGRGSTYYADSVKGRFTISRDNAKNTVYLQMNSLKPEDTAVYYCAALLPGRSSSDYWGQGTLVTVSS
polyreactivity (PSR sort gate): high polyreactivity

QVQLEESGGGLVQAGGSLRLSCAASGRTFYVYTMGWYRQAPRKERELFAGISYSGGSTYYADSVKGRFTISRDTAKKTVYLQKYSLKPEDTAVYYCNAELYFPYFDGKTRHGGYWGQGSQVTVSS
polyreactivity (PSR sort gate): low polyreactivity

QVQLEESGGGLVQAGGSLRLSCAASGRTLSHYAKGWYRKAPGKERELVAAITRSGGSTYYADSVKGRFTISRDNAKNTVYLQMNRLKPEDTAVYYWNKTLYTSYDFWGQGTQVTVSS
polyreactivity (PSR sort gate): low polyreactivity

QVQLEESGGGLVQAGGSLRLSCAASGSIFALYTIGWSRQAPRKERELVAAISSRGGSTYYADSVKGRFTISRDNAKNTVYLQMNSLKPEDTAVYYCNAVVRESAYNFDYWGQGTQVTVSS
polyreactivity (PSR sort gate): high polyreactivity

QVQLEESGGGLVQAGGSLRLSCAASGSIFAVYAMGWYRHAPGKERELVAAIRSGSRTYYADSVKGRFTISRDNAKNTVYLQMNSLKPEDTAVYYCATTYGTPRYDYWGQGTQVTVSS
polyreactivity (PSR sort gate): high polyreactivity

QVQLEESGGGLVQAGGSLRLSCAASGSIFGANAMAWYRQAPGKERDLVAAITTSGGSTFYADSVKGRFTISRDNAKNTVYLQMNCLKPEDNAVYYCAAEWVYSIKSVYIYEMYYWGQGTQVTVSS
polyreactivity (PSR sort gate): low polyreactivity

QVQLEESGGGLVQAGGSLRLSCAASGSIFGQYAMGWYRQAPGKERELVAAISTRGGSTRYADSVKGRFTISRDNAKNTVYLQMNSLTPEGTAVYYCAARVPYIRHLAVDYWGQGTQVTVSS
polyreactivity (PSR sort gate): high polyreactivity

QVQLEESGGGLVQAGGSLRLSCAASGSIFGTYAMGWYRQAPGKEREFVAAISWSDGSTYYADSVKGRFTISRDNAKNTVYLQMNSLKPEDTAVYYCAVRRVGSIYIDRYIYVVADYDYWGQGTQVTVSS
polyreactivity (PSR sort gate): low polyreactivity

QVQLEESGGGLVQAGGSLRLSCAASGSIFGYYAMGWYRQAPGKERELVAAITTGGSTSYADSVKGRFTISRDNAKNTVYLQMNSLKPEDTAVYYCNARFKRLFGRADDYWGQGTQVTVSS
polyreactivity (PSR sort gate): low polyreactivity

QVQLEESGGGLVQAGGSLRLSCAASGSIFIRNAMGWYRQAPGKERELVAAISTIGGRTYYADSVKGRFTISRDNAKNTVYLQMNSQKPEDTAVYYCAAEQGTPSTNWFDYWGQGTQVTVSS
polyreactivity (PSR sort gate): low polyreactivity

QVQLEESGGGLVQAGGSLRLSCAASGSIFIYYAMGWYRQAPGKERELVAGINFNGGSTYYADSVKVRFTISRDNAKNTVYLQMNSLKPEDTAVYYCAADELWWTYWDFVTNWYQRDYWGQGTQVTVSS
polyreactivity (PSR sort gate): low polyreactivity

QVQLEESGGGLVQAGGSLRLSCAASGSIFNVNTIGWYRQAPGKEREFVAAISYSGGSTYYADSVKGRFTISRDNAKNTVYLQMNSLKAEDTALYYCNVSPTTSGDGGGYDSWGQGTQVTVSS
polyreactivity (PSR sort gate): low polyreactivity

QVQLEESGGGLVQAGGSLRLSCAASGSIFRGYAMGWYRQAPGKERELVAAINWSGSSTYYADSVKGRFTISRDNAKNTVYLQMNSPKPEDTAVYYCARVYYNRNLGGDYWGQGTQVTVSS
polyreactivity (PSR sort gate): low polyreactivity

QVQLEESGGGLVQAGGSLRLSCAASGSIFRVYAMGWYRQAPGKERELVAAISQSADSTYYADSVKGRFTILRDNAKNTVYFQMNSLKPEDTAVYYCAAEYPYIYRFDYWGQGTQVTVSS
polyreactivity (PSR sort gate): low polyreactivity

QVQLEESGGGLVQAGGSLRLSCAASGSIFTVNAMGWYRQATGKQMELVAAISQSGGSTYYADSVKGRFTISRDNAKNTVYLQMNSLKPEDTAVYYCNALLFIVHGDKSQTMDYWGQGTQVTGSS
polyreactivity (PSR sort gate): low polyreactivity

QVQLEESGGGLVQAGGSLRLSCAASGSIFVPYAMGWYRQAPGKERELVASISWRGGSTYYADSVKGRFTISRDNAKNTVYLQMNSLKPEDTAVYYCAAQKRGSPGYRRDYWGQGTQVTVSS
polyreactivity (PSR sort gate): high polyreactivity
